Source: patent publication US20160052996A1 (NEURIMMUNE, published 2016)

Experiments:
JCV VP1 VLP [1] = biological target: T1, JCV VP1 VLP (JC virus (JCV), Mad-1 strain, UniProt P03089 1-354); assay: direct ELISA
T1 construct: also called JCV VP1 VLPs; JCV VP1 (coating with reassociation buffer)

BSA (Sigma-Aldrich) = biological target: T2, BSA (Sigma-Aldrich) (bovine, UniProt P02769 25-607); assay: direct ELISA
T2 construct: also called bovine serum albumin

JCV VP1 VLP [2] = biological target: T1, JCV VP1 VLP; assay: direct ELISA, plate coated with antigen at 5 µg/ml in reassociation buffer (VLP); EC50 by non-linear regression (GraphPad Prism)

T2 sequence (P02769 25-607 limits assumed): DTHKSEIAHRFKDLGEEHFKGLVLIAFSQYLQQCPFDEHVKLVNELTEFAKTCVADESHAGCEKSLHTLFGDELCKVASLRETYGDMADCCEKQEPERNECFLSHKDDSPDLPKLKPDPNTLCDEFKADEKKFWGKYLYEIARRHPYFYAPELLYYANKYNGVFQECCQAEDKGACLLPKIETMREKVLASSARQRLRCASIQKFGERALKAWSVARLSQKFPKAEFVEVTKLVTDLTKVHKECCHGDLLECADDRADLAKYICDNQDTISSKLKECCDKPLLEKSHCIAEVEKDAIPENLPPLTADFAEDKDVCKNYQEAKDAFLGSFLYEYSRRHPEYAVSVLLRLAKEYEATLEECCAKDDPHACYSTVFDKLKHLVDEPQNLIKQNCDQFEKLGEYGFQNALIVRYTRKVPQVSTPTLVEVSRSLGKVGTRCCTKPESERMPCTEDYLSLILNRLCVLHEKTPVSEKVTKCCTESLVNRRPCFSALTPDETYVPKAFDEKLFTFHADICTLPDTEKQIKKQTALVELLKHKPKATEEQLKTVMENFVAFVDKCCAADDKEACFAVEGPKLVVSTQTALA

Binder	EC50 (JCV VP1 VLP [1]) [nM]	binding result (BSA (Sigma-Aldrich))	EC50 (JCV VP1 VLP [2]) [nM]
NI-307.78C3 (antibody, V domains shown) VH: QVQLQESGPGLVKPSGTLSLTCTVSGGSISGRIWWSWVRQPPGKGLEWIGEIYHSGSTNYSPSLRGRVTISVDTSKQHFSLKMTSVTAADTAMYYCVRGELALGFDSWGQGTLVTVSS VL: QSALTQPPSASGSPGQSVTISCTGTSSDVGGYNSVSWYQQHPRRAPKLMIYEVSKRPSGVPDRFSGSKSGNTASLTVSGLQADDEAHYYCSSYAGSNNLVFGGGTMLTVL	0.932	no binding	–
NI-307.19F10 (antibody, V domains shown) VH: EVQLVESGGGLVQPGGSVSLSCAASGFTFPVYWMHWVRQAPEKGLMWVSRISPDGTIVDYAGSVKGRFTVSRDNAKNILYLQIQRLTAEDTAVYFCTKDFDVASGFWGQGTLVTVSS VL: QSALTQPPSASGSPGQSVTISCTGSKSDVGTCHFVSWYQQHPGKVPKLVIYEGNKRPSGVPDRFSASKSGNTASLTISGLQPGDEADYYCSTCAGPNNYVFGTGTKVTVL	3.41	no binding	–
NI-307.18F4A (antibody, V domains shown) VH: EVQLVESGGGLVKPGGSLRLSCAASGFTFTNYYMTWVRQAPGKGLEWVSYITGGGSTTYYADSVTGRFTISRDNAKNSLYLQMSSLRVEDTAVYYCARGRGYPDNWFDPWGQGTLVTVSS VL: SYVLTQPPSVSVSPGQTARITCSGDALPKQYVYWYQQKPGQAPVLMIYKDAERPSGIPDRFSGSSSGTTVTLTISGVQAEDEADYYCQSTDISGAAVVFGGGTKLTVL	–	no binding	55
NI-307.44F6B (antibody, V domains shown) VH: EVQLVESGGSVVRPGGSLRLACEVSGLRFDDFAMSWVRQVPGKGLEWIAGIFWNSGGTLYADSVKGRFTISRDNAENSLYLQMNSLRAEDTALYRCVRGRSHAAYYGMDVWGKGTTVTVSS VL: EIVLTQSPLSLPVTPGEPASISCRSSQSLLHSNGYNYLDWYLQKPGQSPQLLIYLGSNRASGVPDRFSGSGSGTDFTLTISRVEAEDVGIYYCMQALQNALAFGGGTKLEIK	0.083	no binding	–
NI-307.24F3 (antibody, V domains shown) VH: QVQLQESGGGVVQPGRSLRLSCAASGFSFNRYGMHWVRQAPGKGLEWLAVISNDGVNTHYADSVKGRFTISRDNSKSTLYLQASSLRVEDTAVYYCAGYYYGSGTSLFFYWGQGTLVTVSS VL: EIVLTQSPDSLAVSLGERATINCKSSQTVLYSSNNQNYLAWYQQKPGQPPKLLLYWASTRESGVPDRFSGSGSGTDFTLTISSLQPEDVAVYYCQQYYTAPYTFGQGTKVEIK	6.95	–	–
NI-307.18E12 (antibody, V domains shown) VH: QVQLQQWGAGLLKPSETLSLTCAVYGDSFSGFFWAWIRQTPGTGLEWIGEIQHGGSPTYNPSFESRLTISTDASKSQVSLKMTSVTVTDTAIYYCARCIRGKYGSGSLQLWSQGTLVTVSS VL: DIQLTQSPSFLSASVGDRVTITCRASQDINYHLAWYRQKPGKAPDLLIHSAHTLHIGVSSRFSGSGSGTEFTLTIHTLQPEDFATYYCHQPKTFPPTFGGGTKVDIK	–	no binding	19.9
NI-307.3G4 (antibody, V domains shown) VH: QVQLVQSGAELKKPGAAVKVSCQASGYNFLSYGINWVRQIPGQGLQWLGWISTYDGTMNYDQKPDNRVTVTTDTSSSTVYLELRGLRSDDTGVYYCVRDRCAGAGCSHSLGYWGQGTLVTVSS VL: DIQMTQSPSALSASVGDRVTISCRASQNINTQLNWYQEKPGKAPELLIYGAFNLQSGAPSTFSGSGSGTDFTLTITSLQPEDFASYYCQQGFHAPYTFGRGTKVDIK	28.2	no binding	–
NI-307.20F5 (antibody, V domains shown) VH: EVQLVESGGGVVQPGTSLRLSCAASGFSFNKYGVHWVRQAPGKGLEWVANIWYDGTNPFYADFVKGRFVISRDTSKNTIYLQMNRLRAEDTAVYYCARDAFCGGDCYGGLLHGLDVWGQGTTVTVSS VL: DVVMTQSPLSLPVTPGEPASISCRSSQSLLHSNGLNYLDWYLQKPGQSPQLLIYLGSNRAPGVPDRFSGSGSGTDFTLKISRVEAEDVGVYYCLQALQTPAFGQGTKVEIK	–	no binding	–
NI-307.5H3 (antibody, V domains shown) VH: QVQLQESGPGLLKPLGTLSLICDVSGDSISSSNWWSWVRQSPRKGLEWIGEIYHSGRTNYNPSLTNRVTISVDKSKNQFSLNLNSVTAADTGVYYCARWDYYYNNDYYIRGFDIWGQGTMVTVSS VL: EIVLTQSPGILSLSPGERATLSCRASQSVDSNYLAWYQQKPGQAPRLLIYSTSTRAAGVPDRFSGSGSGTDFALTISGLEPEDFAVYYCQQWGGSPPITFGQGTRLEIK	1.16	no binding	–
NI-307.6A2 (antibody, V domains shown) VH: QVQLQESGPGLVKPSETLSLTCAVSGGSVSSSYWYSWVRQLPGKGLEWIGEIFHTGDTNYNPSLESRVTISIDTSKNQLSLDVTSATAADTAVYYCARDYCTDSGCDSDALDVWGHGTMVTVSS VL: QSALTQPASVSGSPGQSITISCTGTTKDVGNYNLVSWYQQHPGKAPRLVIYEVSERPSGVSNRFSGSKSGNTASLTISGLQAEDEADYHCCSYAGSGTSVFGGGTKVTVL	1.39	no binding	–
NI-307.57D5 (antibody, V domains shown) VH: EVQLVESGGGLAQPGGSLRLSCAGSGFTLSDFAMSWVRRAPGKGLEWVSSLTPSGRNSFYSDSVKGRFTISRDNWKNTLYLEMNLLRPEDTAVYYCARPGAPKNSDSKYSYVRVDFQHWGQGTLVTVSS VL: NFMLTQPHSVSESPGRTVTISCTRSSGSIANNFVQWYQHRPGSAPTTLIYEDDQRPSGVPDRFSGSVDSFSNSASLTISGLKTEDEADYFCQSYDNHNWVFGGGTTLTVL	57	no binding	–
NI-307.24C6 (antibody, V domains shown) VH: QLQLQESGPGLVKPSGTLSLICVVSGSSIRSNIWWWNWVRQSPGKGLEWIGEIYHSGSTNYSPSLKSRVTMSVDNSKNQFSLKMSSVTAADTAVYFCAINTRTSISGVLYDTFDVWGQGTMVTVSS VL: EIVLTQSPATLSLSSGERATLSCRASQSVSGYLAWYQQKPGQAPRLLIYDGSNRATGIPARFSGSGSGTDFTLTISSLEPEDFAVYYCQHRSNWPMYTFGQGTKLEIK	2.84	no binding	–
NI-307.43A11 (antibody, V domains shown) VH: QVQLQESGPGLVKPSGTLSLTCAVTGGSISSSNWWSWVRQSPGKGLEWIGEIHHDGNLNYNPLLKSRVSMSLDRSKNQFSLKLTSVTAADTAVYYCARWDFFFDSSYYIRGFDLWGQGTMVTVSS VL: ETTLTQSPGTLSLSPGERVTLSCRASQSVDRNYLAWYQQKPGQSPRLLIYSASRRATGIPDRFSGSGSGTDFTLTISRLEPEDFVVYYCQQYGGSPPITFGQGTRLEIK	6.15	no binding	–
NI-307.61D11 (antibody, V domains shown) VH: EVQLVQSGAEVKKPGASVKVSCKTSGYTFIGHYMQWVRQVPGQGFEWMGWINPNTGTTKYALKFKDRVTVTRDTSTATVYMEFHGLTSDDTAVYYCARASAYQLANYDYWGQGTLVTVSS VL: QSALTQPASVSGSPGQSITISCAGTSNDVGDDDFVSWYQHQPGKAPRLMIYEVTNRPSGVSTRFSGSKSGNTASLTISGLQAEDEGDYYCMSYTKNSALGYVFGGGTKVTVL	–	no binding	17.7
